Data on one molecule can be found in patent publication US20250218531A1 (ABSCI, published 2025).

The target in assay [1] is T1, SARS-COV2 Spike RBD, Beta (SARS-CoV-2, UniProt P0DTC2 319-541).
T1 construct: domain: RBD
Put plainly: SPR; 'N/A indicates a lack of binding'.

Assay [2] deals with T2, SARS-COV2 Spike RBD, Delta (SARS-CoV-2, UniProt P0DTC2 319-541).
T2 construct: domain: RBD
Put plainly: SPR; 'N/A indicates a lack of binding'.

B1: AI-Designed Binder (de novo casirivimab HCDR3 variant) (Fab, V domains shown)
VH: QVQLVESGGGLVKPGGSLRLSCAASGFTFSDYYMSWIRQAPGKGLEWVSYITYSGSTIYYADSVKGRFTISRDNAKSSLYLQMNSLRAEDTAVYYCARDWGQTWDSYFDYWGQGTLVTVSS
VL: DIQMTQSPSSLSASVGDRVTITCQASQDITNYLNWYQQKPGKAPKLLIYAASNLETGVPSRFSGSGSGTDFTFTISGLQPEDIATYYCQQYDNLPLTFGGGTKVEIKR
notes: Fab format
For B1, the binding result in assay [1] and in assay [2] was “no binding” throughout.
